Experimental findings from patent US20140322129A1 (Genentech, published 2014) are described below.

In assay [1] the target is T1, irrelevant (Ig-V)-B7-H4 (Ig-C; D158-G236 including TM/CD D237-K282) chimeric membrane protein (Homo sapiens (Human), UniProt Q7Z7D3 158-282).
T1 construct: Transiently expressed on 293 cells; also called construct-88B; B7-H4 Ig-C domain; not shown: irrelevant Ig-V domain
T1 sequence: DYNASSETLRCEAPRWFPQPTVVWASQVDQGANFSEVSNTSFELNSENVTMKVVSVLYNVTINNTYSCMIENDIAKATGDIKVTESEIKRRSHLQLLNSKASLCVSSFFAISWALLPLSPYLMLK
As to the kind of experiment: FACS of Dylight-488 or -650 labelled antibody on 293 cells transiently transfected with construct-88B. The text has this: To determine whether the B7-H4 antibodies bind to either the Ig-V or Ig-C domain of B7-H4, chimeric Ig domain molecules were engineered that contain either a B7-H4 (IgV; G28-F150 including spacer S151-V157)—irrelevant (Ig-C) (construct-88) or an irrelevant (Ig-V)-B7-H4 (Ig-C; D158-G236 including TM/CD D237-K282) (construct-88B) membrane protein using standard molecular cloning methods. N-terminal or cytoplasmic tags were attached to confirm that 293 cells transfected with these constructs express protein on the cell membrane (data not shown). Briefly, 293 cells were transiently transfected with constructs 88 & 88B using polyfect. After 48 hours, the cells were stained with 10 μg/ml of Dylight-488 or -650 labeled ch9B9, ch1D11, ch22C10 or ch32D6 for 30-40 minutes at 4° C., washed and analyzed on a BD FACS calibur.

In another assay the target is T2, cynomolgus monkey B7-H4 (cynomolgus monkey, UniProt Q7Z7D3 29-282 (human entry)).
T2 construct: Expressed on stably transfected 293 cells; also called cyno B7-H4
T2 chain: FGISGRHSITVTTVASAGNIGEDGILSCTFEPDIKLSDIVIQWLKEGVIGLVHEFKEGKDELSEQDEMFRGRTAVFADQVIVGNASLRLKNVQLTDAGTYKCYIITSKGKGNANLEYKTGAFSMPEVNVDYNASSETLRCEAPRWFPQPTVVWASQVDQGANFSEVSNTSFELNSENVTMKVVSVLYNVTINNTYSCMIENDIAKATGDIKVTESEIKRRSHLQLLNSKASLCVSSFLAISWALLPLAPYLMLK
As to the kind of experiment: FACS titration on 293-cyno B7-H4 cells, geometric mean fluorescence. The method, then: The small-scale preps were initially screened by FACS and Scatchard Analyses to determine species-specificity and affinity (Kd) to recombinant and endogenous B7-H4. Initial EC₅₀ and species specificity were determined by incubating different concentrations (0-10 μg/ml) of the humanized variants with 293 cells overexpressing recombinant human-, cynomolgus-, or mouse-B7-H4, and the tumor cell line, MX-1, expressing endogenous human B7-H4, at 4° C. for 40 minutes followed by a wash and staining with a secondary goat-anti-human IgG antibody conjugated to Dylight-650 for 20 minutes at 4° C. The fluorescent signal was acquired with a BD FACS Calibur and EC₅₀ values were determined with the Graph Pad program Prism 4.

B1: ch32D6 (antibody, human IgG1, V domains shown)
VH: EVQLQQSGPDLVKPGASVKISCKASGYSFTGYYIHWMKQSHGKSLEWIGRVNPNNGDPIYNQKFRGKAILTVDQSSNTAYMELRSLTSEASAVYYCARVLFYYGSPFAYWGQGTLVTVSA
VL: DIVMTQSPSSLIVTAGEKVTMSCRSSQSLFDSGSQRNYLTWFHQKPGRPPKLLIYWASTRESGVPDRFTGSGSGTDFTLTISSVQTEDLAVYFCQNDYSFPFTFGSGTKLEEK
notes: also called chimeric 32D6
For the molecule B1, in assay [1], the binding result was “no binding (tested: 10 ug/ml)”.

B2: ch9B9 (antibody, human IgG1, V domains shown)
VH: QVQLQQSGAELMKPGASVKMSCKATGYTFSSYWIEWVKQRPGHGLEWIGEILPGTSITTYNAKFKVKATFTADTSSNTAYMQLSSLTSEDSAVYFCARYYFGSSSFYFDYWGQGTSLTVSS
VL: QAVVTQESALTTSPGDTVTLTCRSSTGAVTTSNYANWVQEKPDHLFTGLIGGTNNRVPGVPARFSGSLIGDKAALTITGAQTEDEAMYFCALWYNNHWVFGGGTKLE
notes: also called chimeric 9B9
Take B2: the binding result in assay [1] is “no binding (tested: 10 ug/ml)”.

B3: ch1D11 with light chain C43G (antibody, V domains shown)
VH: QVQLQQSGAELVRPGTSVKMSCKASGYTFTSYWIGWAKQRPGHGFEWIGDIYPGGGYTNYNEKFKGKATLTADKSSSTAYMQFSSLTSEDSAIYYCARLDGSSYRGAMDSWGQGTSITVSS
VL: DIQMTQSPSSLSASLGGKVTITCKASQGFNKYVAWYQHKPGQGPRLLIHYTSTLQPGIPARFSGSGSGRDYSFSISNLEPEDSATYFCLQYGNLLYAFGGGTKLEIKR
notes: Dylight-488 or -650 labelled in the assay; also called slightly modified version of ch1D11
As to B3, the binding result in assay [1] is reported as “no binding (tested: 10 ug/ml)”.

B4: ch22C10 (antibody, human IgG1, V domains shown)
VH: QVQLQQPGAELVKPGTSVKLSCKASGYTFTNFWIHWVIQRPGQGLEWIGEIDPSDSYTNYNQKFKGKATLTVDKSSNTAYMQLSSLTSEDSAVYYCSREITTVDYWGQGTTLTVSS
VL: QIVLTQSPTIMSASPGEKVTLTCSATSSISYMHWYQQKPGTSPKGWIYDTSKLAHGVPARFSGSGSGTSYSLTISSMEAEDAATYYCHQRRSYPFTFGSGTKLEIK
notes: also called chimeric 22C10; ch2210
Turning to B4, in assay [1], the binding result is “no binding (tested: 10 ug/ml)”.

B5: hu1D11.v1.8 (antibody, V domains shown)
VH: EVQLVQSGAEVKKPGASVKVSCKASGYTFTSYWIGWVRQAPGQGLEWIGDIYPGGGYTNYNEKFKGRATITRDTSTSTAYLELSSLRSEDTAVYYCARLDGSSYRGAMDSWGQGTLVTVSS
VL: DIQMTQSPSSLSASVGDRVTITCKASQGFNKYVAWYQQKPGKAPKLLIYYTSTLQPGVPSRFSGSGSGRDYTLTISSLQPEDFATYYCLQYGNLLYAFGQGTKVEIKR
notes: also called h1D11.v1.8
For the molecule B5, in the assay with cynomolgus monkey B7-H4, the binding result was “binds”.
